Results on four molecules are retold here after patent US20200283521A1 (GRANULAR THERAPEUTICS, published 2020).

The target of one test is T1, F13A1 (human, UniProt P00488 39-732).
T1 construct: whole, on cells
T1 sequence (looked up): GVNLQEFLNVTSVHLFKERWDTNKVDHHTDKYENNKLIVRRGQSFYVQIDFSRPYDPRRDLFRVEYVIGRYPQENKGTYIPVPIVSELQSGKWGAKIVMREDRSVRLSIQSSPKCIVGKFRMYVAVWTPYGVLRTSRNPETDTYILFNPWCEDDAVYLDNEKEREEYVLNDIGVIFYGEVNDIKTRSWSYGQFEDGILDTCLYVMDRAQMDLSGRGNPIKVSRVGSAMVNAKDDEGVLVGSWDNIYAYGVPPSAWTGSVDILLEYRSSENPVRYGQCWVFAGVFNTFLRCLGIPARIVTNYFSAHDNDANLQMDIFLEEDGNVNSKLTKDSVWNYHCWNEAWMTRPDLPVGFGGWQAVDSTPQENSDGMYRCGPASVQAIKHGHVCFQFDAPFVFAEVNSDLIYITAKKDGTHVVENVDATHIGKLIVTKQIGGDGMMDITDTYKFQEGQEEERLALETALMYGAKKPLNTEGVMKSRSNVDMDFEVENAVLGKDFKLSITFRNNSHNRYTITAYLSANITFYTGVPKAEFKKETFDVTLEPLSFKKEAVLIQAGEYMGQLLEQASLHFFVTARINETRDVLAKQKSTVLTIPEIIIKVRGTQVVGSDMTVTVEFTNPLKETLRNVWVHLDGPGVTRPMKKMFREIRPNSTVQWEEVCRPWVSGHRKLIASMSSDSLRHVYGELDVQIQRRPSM
Kind of test: cell array, HEK293 re-array slides.

Another test concerns the target T2, CRIM1 (human, UniProt Q9NZV1 35-1036).
T2 construct: whole, on cells
T2 sequence (looked up): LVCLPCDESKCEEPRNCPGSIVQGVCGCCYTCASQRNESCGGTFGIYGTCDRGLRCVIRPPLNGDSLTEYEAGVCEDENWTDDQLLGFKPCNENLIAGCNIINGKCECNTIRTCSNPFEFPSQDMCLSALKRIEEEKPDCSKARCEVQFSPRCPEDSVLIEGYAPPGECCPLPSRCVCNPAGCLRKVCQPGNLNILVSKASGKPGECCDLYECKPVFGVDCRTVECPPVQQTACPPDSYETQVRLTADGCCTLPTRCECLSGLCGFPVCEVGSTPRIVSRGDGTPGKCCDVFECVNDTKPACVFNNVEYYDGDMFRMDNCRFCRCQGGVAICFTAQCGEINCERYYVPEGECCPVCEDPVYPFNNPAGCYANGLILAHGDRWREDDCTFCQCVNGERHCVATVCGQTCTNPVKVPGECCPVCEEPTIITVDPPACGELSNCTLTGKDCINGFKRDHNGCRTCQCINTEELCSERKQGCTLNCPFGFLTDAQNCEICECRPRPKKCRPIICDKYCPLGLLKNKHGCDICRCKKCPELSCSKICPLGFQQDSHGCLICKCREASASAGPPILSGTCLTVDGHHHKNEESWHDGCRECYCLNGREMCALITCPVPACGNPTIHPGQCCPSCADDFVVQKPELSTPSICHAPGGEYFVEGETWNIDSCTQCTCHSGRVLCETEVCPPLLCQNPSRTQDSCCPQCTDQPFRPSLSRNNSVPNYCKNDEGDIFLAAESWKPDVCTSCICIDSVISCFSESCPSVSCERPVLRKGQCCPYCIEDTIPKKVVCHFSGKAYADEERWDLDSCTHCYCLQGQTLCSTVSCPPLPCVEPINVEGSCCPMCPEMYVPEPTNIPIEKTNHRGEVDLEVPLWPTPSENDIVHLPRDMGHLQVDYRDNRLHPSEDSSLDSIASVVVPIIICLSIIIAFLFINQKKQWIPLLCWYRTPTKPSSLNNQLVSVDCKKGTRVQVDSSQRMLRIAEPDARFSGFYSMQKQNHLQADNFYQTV
Put plainly: cell array, HEK293 re-array slides.

Another test concerns the target T3, MMP7 (human, UniProt P09237 95-267).
T3 construct: whole, on cells
T3 sequence (looked up): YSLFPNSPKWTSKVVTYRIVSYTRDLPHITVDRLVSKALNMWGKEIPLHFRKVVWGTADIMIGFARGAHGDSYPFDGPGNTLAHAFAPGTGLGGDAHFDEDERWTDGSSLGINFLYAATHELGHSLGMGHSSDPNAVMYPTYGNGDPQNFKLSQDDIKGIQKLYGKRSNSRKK
Put plainly: cell array, HEK293 re-array slides.

Test [1] concerns the target T4, human C-KIT-Fc (human, UniProt P10721 26-524).
T4 construct: also called biotinylated human C-KIT-Fc; not shown: Fc part not described
Put plainly: direct ELISA at 1 µg/ml.

Test [2] addresses T4, human C-KIT-Fc. Put plainly: direct titration ELISA on coated C-KIT-Fc, IgG1 format. A general note: ELISA stands for enzyme-linked immunosorbent assay.
For test [3], the target named is T4, human C-KIT-Fc. Kind of test: HTRF competition vs Tb-h37M IgG1. In general terms: Time-resolved FRET reads energy transfer from a long-lived donor to a nearby acceptor.
Test [4] concerns the target T4, human C-KIT-Fc. Kind of test: HTRF competition vs Tb-h37M IgG1. This is another data set of the same source.
Test [5] has as its target T5, human C-KIT, full length, on cells (human, UniProt P10721 26-976).
T5 construct: full-length cDNA stably transfected in CHO-K1; also used here for endogenous C-KIT of TF-1 cells; also called human C-KIT+ CHO-K1 cells; C-KIT on TF-1 cells
Put plainly: flow cytometry, C-KIT-transfected CHO-K1 cells, IgG1 format. (In general: Flow cytometry measures light scatter and fluorescence of single cells or particles in a stream.)

The target of test [6] is T4, human C-KIT-Fc. Put plainly: direct titration ELISA on coated C-KIT-Fc, IgG1 format. This is another data set of the same source.
Test [7] addresses T6, cynomolgus monkey C-KIT-Fc (cynomolgus monkey).
T6 construct: also called cyno C-KIT-Fc
Kind of test: direct ELISA at 1 µg/ml.

For test [8], the target named is T7, cynomolgus monkey C-KIT, full length, on CHO-K1 cells (cynomolgus monkey).
T7 construct: whole, on cells; also called cyno C-KIT+ CHO-K1 cells
Put plainly: flow cytometry, C-KIT-transfected CHO-K1 cells, IgG1 format.

Test [9] addresses T6, cynomolgus monkey C-KIT-Fc. Put plainly: HTRF competition vs Tb-h37M IgG1.
The target of a further test is T8, hTWEAK-Fc (human, UniProt O43508).
T8 construct: Fc fusion; member of the panel m9
T8 sequence (looked up): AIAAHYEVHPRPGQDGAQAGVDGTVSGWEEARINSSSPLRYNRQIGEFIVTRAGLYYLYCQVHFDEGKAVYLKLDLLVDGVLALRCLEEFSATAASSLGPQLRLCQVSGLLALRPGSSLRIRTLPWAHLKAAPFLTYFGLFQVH
Put plainly: direct ELISA on coated protein, IgG1.

Read-outs that look alike come from different tables or passages of the source.

B1: humanized h37M, human IgG1 (antibody, V domains shown)
VH: QVQLVQSGAEVKKPGASVKLSCKASGYTFTDYYINWVRQAPGKGLEWIARIYPGSGNTYYNEKFKGRATLTADKSTSTAYMQLSSLRSEDTAVYFCARGVYYFDYWGQGTTVTVSS
VL: DIVMTQSPSSLSASVGDRVTITCKASQNVRTNVAWYQQKPGKAPKALIYSASYRYSGVPDRFTGSGSGTDFTLTISSLQPEDFADYFCQQYNSYPRTFGGGTKVEIK
notes: human IgG1; terbium-labelled as the tracer of the HTRF assays; also called C-KIT-h37M; h37M-IgG1
As to B1, the binding result with F13A1 is “no binding (tested: 0.5 and 2 µg/ml)”; with CRIM1, “no binding (tested: 0.5 and 2 µg/ml)”; with MMP7 it was “no binding (tested: 0.5 and 2 µg/ml)”. In addition, in the test with human C-KIT-Fc [1], the OD450 nm is greater than 1.8 OD450 nm. Further, the “EC50 (read off the curve)” value in the test with human C-KIT-Fc [2] is roughly 0.2 µg/mL; in test [5], roughly 0.2 µg/mL; with human C-KIT-Fc [6] it was roughly 0.1 µg/mL. In addition, the IC50 in the test with human C-KIT-Fc [3] is 0.025 µg/mL; with human C-KIT-Fc [4] it was 0.016 µg/mL.

B2: MH5, human IgG1 (antibody, V domains shown)
VH: QVQLVQSGAEVKKPGASVKVSCKASGYTFTDYYMNWVRQAPGQGLEWMGRIYPGSGNTYYAQKFQGRVTMTRDTSTSTVYMELSSLRSEDTAVYYCARGVYYYDYWGQGTLVTVSS
VL: DIQMTQSPSSLSASVGDRVTITCRASQGIRTNLAWFQQKPGKAPKSLIYSASSLQSGVPSRFSGSGSGTDFTLTISSLQPEDFATYYCQQYANYPRTFGGGTKVEIK
notes: IgG1; also called C-KIT-MH5; C-KIT-MHS
As to B2, the OD450 nm in test [7] was greater than 2 OD450 nm; with human C-KIT-Fc [1], greater than 1.8 OD450 nm. Moreover, the “EC50 (read off the curve)” value with human C-KIT-Fc [2] is roughly 0.1 µg/mL; in test [8] it was roughly 0.5 µg/mL; in test [5] it was roughly 0.3 µg/mL; with human C-KIT-Fc [6], roughly 0.1 µg/mL. Also, the results for the IC50 (with human C-KIT-Fc [3]; in [9]; with human C-KIT-Fc [4]) were 0.063 µg/mL, 0.058 µg/mL and 0.067 µg/mL, respectively.

B3: MH1, human IgG1 (antibody, V domains shown)
VH: QVQLVQSGAEVKKPGASVKVSCKASGYTFTDYYMNWVRQAPGQGLEWMGRIYPGSGNTYYAQKFQGRVTMTRDTSTSTVYMELSSLRSEDTAVYYCARGVYYYDYWGQGTLVTVSS
VL: DIQMTQSPSSLSASVGDRVTITCRASQGIRTNLAWFQQKPGKAPKSLIYAASSLQSGVPSRFSGSGSGTDFTLTISSLQPEDFATYYCQQYNSYPRTFGGGTKVEIK
notes: IgG1; also called IgG1-MH1
B3: the binding result is “no binding (tested: 0.5 and 2 µg/ml)” in the test with F13A1; “no binding (tested: 0.5 and 2 µg/ml)” with CRIM1; “no binding (tested: 0.5 and 2 µg/ml)” in the test with MMP7; “no binding (tested: 1 µg/ml)” with hTWEAK-Fc. For the same molecule, the OD450 nm was greater than 2 OD450 nm in [7] and greater than 1.8 OD450 nm with human C-KIT-Fc [1]. Also, in the test with human C-KIT-Fc [2], the concentration for a half-maximal effect (EC50 (read off the curve)) is roughly 0.1 µg/mL.

B4: MH5.22 (antibody, IgG1, V domains shown)
VH: QVQLVQSGAEVKKPGASVKVSCKASGYTFTDFYMNWVRQAPGQGLEWMGRIYPASGNTYYAQKFQGRVTMTRDTSTSTVYMELSSLRSEDTAVYYCARGVWYYDYWGQGTLVTVSS
VL: DIQMTQSPSSLSASVGDRVTITCRASQGIRTNLAWFQQKPGKAPKSLIYAASSLQSGVPSRFSGSGSGTDFTLTISSLQPEDFATYYCQQYANYPRTFGGGTKVEIK
notes: IgG1; also called C-KIT-MH5.22
For B4, the OD450 nm was greater than 2 OD450 nm in [7] and greater than 1.8 OD450 nm in the test with human C-KIT-Fc [1]. Besides, the “EC50 (read off the curve)” value in test [8] and in test [5] was roughly 0.4 µg/mL each time. The IC50 in [9] amounted to 0.164 µg/mL; with human C-KIT-Fc [4] it was 0.134 µg/mL.

A word on the EC50 (read off the curve): it is the concentration giving half of the maximal effect. In general, IC50 refers to the point on the concentration scale where inhibition reaches its midpoint.
